The source of these data is article PMC7856178 (Archives of biochemistry and biophysics, 2020).

Assay in all cases: FRET or BRET
(BRET reads energy transfer from a luciferase to a nearby fluorophore.)

Data set [1] deals with the molecule itself.
Data set [2] deals with the molecule itself. This is another data set of the same source.
Data set [3] concerns the molecule itself. This is another data set of the same source.

Where two headings read alike, the source gives them in different places.

B1: CYP2E1 labeled with BODIPY-618 maleimide (enzyme, human, UniProt P05181 1-493, looked up)
chain: MSSMWRQVHSSWNLPPGPFPLPIIGNLFQLELKNIPKSFTRLAQRFGPVFTLYVGSQRMVVMHGYKAVKEALLDYKDEFSGRGDLPAFHAHRDRGIIFNNGPTWKDIRRFSLTTLRNYGMGKQGNESRIQREAHFLLEALRKTQGQPFDPTFLIGCAPCNVIADILFRKHFDYNDEKFLRLMYLFNENFHLLSTPWLQLYNNFPSFLHYLPGSHRKVIKNVAEVKEYVSERVKEHHQSLDPNCPRDLTDCLLVEMEKEKHSAERLYTMDGITVTVADLFFAGTETTSTTLRYGLLILMKYPEIEEKLHEEIDRVIGPSRIPAIKDRQEMPYMDAVVHEIQRFITLVPSNLPHEATRDTIFRGYLIPKGTVVVPTLDSVLYDNQEFPDPEKFKPEHFLNENGKFKYSDYFKPFSTGKRVCAGEGLARMELFLLLCAILQHFNLKPLVDPKDIDLSPIHIGFGCIPPRYKLCVIPRS
modifications: BODIPY-618 maleimide label, 2:1 label to protein ratio (labelled residues not stated)
On to B1, for which the figures for the “(Lipid/CYP2E1)50%” value in “FRET or BRET [1]”, in “FRET or BRET [2]” and in the data set “FRET or BRET [3]” were 604 molar ratio, 176 molar ratio and 14400 molar ratio, respectively.
